Patent US7494645B2, “Lipid phosphate phosphatases and uses thereof for treating neuronal diseases” (Charite Universitaetsmedzin-Berlin, priority 2002, dated 2009)
“Also recorded” adds a separate entry of the source.

Key:
PRG-3 mRNA = PRG-3 mRNA in situ hybridization after kainate administration in vivo; parameters: species or system rat; settings: 10 mg/kg i.p.
Description: For hybridization, we used two antisense oligonucleotides which both gave essentially the same hybridization signal: 5′-GCAGAGGTCTGAATTCTAGTGTCTATCGTTATAGTTCCTTAACAGTGTGGG-3′ (SEQ ID NO. 37) and 5′-CATCCTTCTGTAGTAGCTTTCTGCCTCTGCCTCCACTTCTCTCT-3′ (SEQ ID NO. 38) complementary to rat PRG-3 sequence (SEQ ID NO. 23). The oligonucleotide was synthesized by Metabion (Munich, Germany). The specificity was confirmed by a BLAST GenBank search to rule out cross-hybridization with other genes. We used the protocol as previously described (Brauer et al., 2001, supra).
Six rats, weighing 200-300 g, were weight-paired (±10 g per pair). These animals received a single i.p. injection of kainic acid (10 mg/kg bodyweight; from Ocean Products Int., Canada) freshly dissolved in 0.9% saline. Behavior was then observed constantly for 24 hr via video time lapse recordings. […] Severity of seizures was scored for 4 h after kainate injection using the classification of Zhang et al. […] Nissl-positive undamaged neurons were counted in five coronal brain sections per animal (sections were chosen by unbiased sampling), and the mean number of cells per section were determined such that the value obtained for each rat represents an average total number of neurons counted per section (250 μm by 250 μm square in the middle of the CA1 region). […]

[1] = tested on: N1E-115 mouse neuroblastoma cells; assay: LPA induced neurite retraction and protection in transfected N1E-115 cells; type: cell-based
Description: The rat PRG-1 full length clone was amplified by Marathon PCR (Clontech, USA) from adult rat hippocampus RNA (SEQ ID No. 17). For transfection studies, the full length PRG-1 coding sequence was fused to EGFP (pEGFP-N1 vector Clontech, USA). The PRG-1^His/Lys exchange mutant at the catalytic histidine (His-252) was introduced in the same protein fusion vector by site specific mutagenesis (CAT to AAG).
(§1) N1E-115 mouse neuroblastoma cells (ATCC: CRL-2263) were routinely grown in DMEM medium supplemented with selenium-defined fetal bovine serum (10%). The cells were seeded on baked glass cover slides at a density of 10,000 cells/cm^2. The next day, cells were transfected with the cationic lipids procedure (FuGene6, Roche, Germany) and cultivated for 24 h. Serum-starvation was performed for 20 h in DMEM medium, followed by treatment with 10 μmol/l oleoyl-LPA or vehicle (0.9% sodium chloride) (K. Jalink et al (1993) Cell Growth Differ. 4:247-255). After 10 min, cells were fixed in 4% paraformaldehyde for 20 min at room temperature and further analysis processed as described above. Images were taken with a CCD camera on an Olympus BX-50 microscope. Quantification was performed with the Meta Morph analysis system (University Imaging, PA). For statistical analysis Statview II was used (Abacus, USA). The effects of transfection on cell viability were analysed by MTT assay and propidium iodide staining (Savaskan N. E. et al. (2002) FASEB J. 17:112-114).

entorhinal explants = assay: LPA induced neurite retraction in entorhinal explants; type: cell-based, rat; settings: 100 nmol/l LPA, 10 min
Experimental: Entorhinal explants from E16 and P0 rat pups were obtained from timed-pregnant Wistar rats and were cultivated as described (N. E. Savaskan (2000) Eur. I. Neurosci 12:1024-1032). In brief, entorhinal cortex was carefully dissected from the hippocampal anlage and the meninges were removed. Explants were gently transferred with a fire-polished Pasteur pipette into 12-well plates and cultivated on baked glass cover slides coated with laminin and poly-L-lysin (25 μg/ml and 10 μg/ml, respectively) in culture medium containing selenium-defined fetal bovine serum [5%] (N. E. Savaskan et al (2000) FASEB J. e-published) (Neurobasal medium plus 25 μg/ml Penicillin/Streptomycin; B-27 supplement). After 24 h, culture medium was exchanged and cultivation was further performed in serum-free Neurobasalmedium for 20 h. Serum-starved explants were treated with 100 nmol/l oleoyl-LPA (5 mmol/l stock solution in ultra-filtrated water) for 10 min or with vehicle (0.9% NaCl) and then fixed in 4% paraformaldehyde for 20 min. For F-actin staining, fixed tissues were incubated with TRITC-phalloidin (0.1 μg/ml, Sigma, Germany) for 40 min, followed by incubation with HOECHST 33258 dye (1:20,000, Sigma, Germany) for 5 min at room temperature. […] Images were taken with a CCD camera on an Olympus BX-50 microscope and quantification was performed using the Meta Morph analysis system (Universal Imaging, PA). […]

N1E-115 cells [2] = assay: Ecto-phosphatase activity (extracellular LPA degradation) in transfected N1E-115 cells; type: cell-based, mouse
Experimental: The assay procedures used were adapted from those described in Imai et al. (2000) J. Clin. Endocrinol. Metab 85:3370-3375 and Hooks S. B. et al. (2001) J. Biol. Chem. 276:4611-4621. Briefly, transfected cells were harvested after serum-free cultivation for 20 h by scraping in lysis buffer (containing 20 mmol/l HEPES pH 7.4, 1 mmol/l NaHCO3, 500 μmol/l DTT, 1 mmol/l EGTA) and sonicated with two strokes (Bandolin GM 70, Germany). After centrifugation at 800×g, the supernatant was diluted in lysis buffer and centrifuged at 100,000×g for 1 h. Alternatively, the supernatant was topped on a sucrose step gradient (50% and 5%) and centrifuged at 100,000×g for 1 h (Savaskan, N. E. et al. (2000) Eur. J. Neurosci. 12:1024-1032. The resulting pellet and interphase, respectively, were re-homogenized and centrifuged again at 100,000×g for 1 h. The crude membrane pellet was re-suspended in reaction buffer (50 mmol/l HEPES pH 7,5; 1 mmol/l EGTA) and protein concentration was determined spectroscopically by Bradford protein assay (Amersham, Germany). Assessment of LPA metabolism was performed with exogenous ^3H-oleoeyl-LPA (Perkin Elmer, Germany) measuring ^3H-oleoeyl-glycerol production. […] All fractions of dried plates were scintillation counted and compared with authentic standards (LPA, 1-monoolein, 1,2-monoolein, oleic acid). […]

[3] = tested on: hyperphosphorylated tau protein; assay: Tau hyperphosphorylation in neurons overexpressing PRG-1 (cell culture model); type: cell-based
Description: Alzheimer's disease is characterized by intracellular neurofibrillary tangle formation formed by tau-based paired helical filaments (PHF) and by extracellular beta-amyloid plaques. The degree of Alzheimer dementia correlates well with the severity of PHF occurrence. These PHF are formed by hyperphosphorylated tau formation. […] To gain insights into the functional role of PRG-1 in Alzheimer's pathology we used an established cell culture model.

N1E-115 cells [4] = assay: Cell viability of N1E-115 cells after transfection (MTT assay, propidium iodide staining); type: cell-based, mouse; settings: 48-72 h after transfection
Experimental: as §1

Molecule: C=C(C)[C@H]1CN[C@H](C(=O)O)[C@H]1CC(=O)O [kainic acid]
- PRG-3 mRNA expression in hippocampus (PRG-3 mRNA; five days after kainic acid application): comparable levels to the adult non-treated controls
- PRG-3 mRNA expression in hippocampus (PRG-3 mRNA; six hours after kainic acid application): rapid PRG-3 repression

Molecule: 1- or 2-oleoyl-lysophosphatidic acid [LPA]
- LPA-induced growth cone collapse of N1E-115 cells ([1]; eGFP-only transfected cells, 10 μmol/l LPA, 10 min): uniformly sensitive
- neurite retraction in embryonic entorhinal explants (entorhinal explants; E16 explants (no PRG-1 expression), n=20): rapid neurite retraction
- neurite retraction in postnatal entorhinal explants (entorhinal explants; P0 explants (express PRG-1), n=22): did not differ significantly from vehicle treated control cultures

B1: PRG-1: plasticity-related gene 1 protein, lipid phosphate phosphatase; rat full length clone expressed by transfection (protein)
chain: MQRAGSSGARGECDISGTGRLRLEQAARLGGRAVHTSPTGGLGARQVAGMSAKERPKGKVIKDSVTLLPCFYFVELPILASSVVSLYFLELTDVFKPVHSGFSCYDRSLSMPYIEPTQEAIPFLMLLSLAFAGPAITIMVGEGILYCCLSKRRNGAGLEPNINAGGCNFNSFLRRAVRFVGVHVVGLCSTALITDIIQLATGYQAPYFLTVCKPMYTSLEGSCKENSYIVEEICSGSDLTVINNGKKSFPSQHATLAAFAAVYVSMYFNSTLTDSSKLLKPLLVFTFIICGIICGLTRITQYKNHPVDVYCGFLIGGGIALYLGLYAVGNFLPSEDSMLQHRDALRSLTDLNQDPSRVLSAKNGSSGDGIAHTEGILNRNHRDASSLTNLKRANADVEIITPRSPMGKESMVTFSNTLPRANTPSVEDPVRRNASIHASMDSARSKQLLTQWKSKNESRKMSLQVMDSEPEGQSPPRSIEMRSSSEPSRVGVNGDHHVPGNQYLKIQPGTVPGCNNSMPAGPRVSIQSRPGSSQLVHIPEETQENISTSPKSSSARAKWLKAAEKTVACNRGNNQPRIMQVIAMSKQQGVLQSSPKNAEGSTVTCTGSIRYKTLTDHEPSGIVRVEAHPENNRPIIQIPSSTEGEGSGSWKWKAPEKSSLRQTYELNDLNRDSESCESLKDSFGSGDRKRKHIDSNEHHHHGITTIRVTPVEGSEIGSETLSVSSSRDSTLRRKGNIILIPERSNSPENTRNIFYKGTSPTRPYKD
- increase of LPA needed to overcome resistance against growth cone collapse ([1]; PRG-1 overexpressing N1E-115 cells, LPA dose response): 10 fold
- protection against LPA-induced growth cone collapse / retraction of processes ([1]; transfected N1E-115 cells, 10 μmol/l LPA): resistance of N1E-115 cells to LPA-induced growth cone collapse; also recorded: did not prevent CPA-induced retraction of processes
- LPA-induced actin-polymerization ([1]; transfected N1E-115 cells, phalloidin staining): prevented LPA-induced actin-polymerization
- increase in ecto-phosphatase activity compared to eGFP transfection alone (N1E-115 cells [2]): 5 fold
- hyperphosphorylated tau and PHF formation ([3]; PRG-1 overexpression, tau hyperphosphorylation induced with okadaic acid or LPA): significantly decrease
- hyperphosphorylated tau protein ([3]; neurons overexpressing PRG-1 vs control transfected cells): significant reduction
- cell viability (N1E-115 cells [4]): unaffected
